Laboratory results reported in the Immune Epitope Database (IEDB).

Experiments:
Test in all cases: IEDB peptide-MHC binding, purified MHC/competitive/radioactivity; filed as Kd, often an IC50 or EC50 that approximates it; ≥ and ≤ were set here for values at or beyond the usual limits of such assays
[1] = biological target: HLA-B*54:01
[2] = biological target: HLA-B*07:02
[3] = biological target: HLA-B*35:01
[4] = biological target: HLA-B*51:01
[5] = biological target: HLA-B*53:01
[6] = biological target: HLA-B*15:03
[7] = biological target: HLA-A*30:01
[8] = biological target: HLA-A*32:01
[9] = biological target: HLA-B*15:01
[10] = biological target: HLA-B*08:01
[11] = biological target: HLA-A*31:01
[12] = biological target: HLA-A*68:01
[13] = biological target: HLA-A*68:02
[14] = biological target: HLA-A*03:01
[15] = biological target: HLA-A*02:06
[16] = biological target: HLA-A*11:01
[17] = biological target: HLA-A*02:03
[18] = biological target: HLA-A*02:01
[19] = biological target: HLA-A*33:01
[20] = biological target: HLA-A*02:02
[21] = biological target: HLA-A*01:01; details: source organism: Hepacivirus hominis
[22] = source organism: Vaccinia virus WR
[23] = source organism: Vaccinia virus Copenhagen
[24] = source organism: SARS coronavirus Tor2
[25] = source organism: Triticum aestivum
[26] = source organism: Hepacivirus hominis

Q: What does the source list for NPLFHGGEPI?
A: Kd [1, 22]: 382 nM; Kd [2, 22]: 8.02 nM; Kd [3, 22]: 3550 nM; Kd [4, 22]: 4460 nM; Kd [5, 22]: 312 nM

Q: LKSVETSSL was tested. Which Kd [6, 23] did it give?
A: 3.76 nM

Q: Which Kd [1, 24] does the source give for FPQAAPHGVV here?
A: 15.8 nM

Q: And the Kd [2, 24]?
A: 82.2 nM

Q: What about the Kd [3, 24] of the same sequence?
A: 1680 nM

Q: And the Kd [4, 24]?
A: 159 nM

Q: And the Kd [5, 24]?
A: 4140 nM

Q: What does the source list for YTLYKKLSF?
A: Kd [7, 23]: 22.6 nM; Kd [8, 23]: 194 nM; Kd [9, 23]: 14.3 nM; Kd [6, 23]: 38.2 nM; Kd [10, 23]: 16.3 nM

Q: For EEVNIDNSF, which Kd [6, 22] is on record?
A: 1200 nM

Q: For FIKNKIHLL, which Kd [7, 22] is on record?
A: 2520 nM

Q: What about the Kd [8, 22] of the same sequence?
A: 2810 nM

Q: What about the Kd [9, 22] of the same sequence?
A: 97.7 nM

Q: What about the Kd [6, 22] of the same sequence?
A: 6910 nM

Q: What about the Kd [10, 22] of the same sequence?
A: 0.821 nM

Q: For RLYSEGLSI, which Kd [9, 22] is on record?
A: 4.53 nM

Q: What about the Kd [6, 22] of the same sequence?
A: 31.9 nM

Q: For MMSMYGKAF, which Kd [9, 22] is on record?
A: 3.18 nM

Q: What about the Kd [6, 22] of the same sequence?
A: 2.61 nM

Q: How did the Kd [1, 22] turn out when YPEYNRAVKF was run?
A: 473 nM

Q: What about the Kd [2, 22] of the same sequence?
A: 122 nM

Q: And the Kd [3, 22]?
A: 808 nM

Q: What about the Kd [4, 22] of the same sequence?
A: 857 nM

Q: What about the Kd [5, 22] of the same sequence?
A: 41.7 nM

Q: What does the source list for SLTIKDSSNK?
A: Kd [11, 22]: ≥ 70000 nM; Kd [12, 22]: ≥ 52700 nM; Kd [1, 22]: ≥ 69900 nM; Kd [2, 22]: ≥ 52300 nM; Kd [13, 22]: ≥ 69800 nM; Kd [3, 22]: ≥ 46500 nM; Kd [14, 22]: 9780 nM; Kd [15, 22]: ≥ 69800 nM; Kd [16, 22]: ≥ 25300 nM; Kd [17, 22]: ≥ 70400 nM; Kd [18, 22]: ≥ 69400 nM; Kd [19, 22]: ≥ 70000 nM; Kd [4, 22]: ≥ 69600 nM; Kd [5, 22]: ≥ 69900 nM; Kd [20, 22]: ≥ 70000 nM

Q: With LPAMCNVY as the sequence, how does the Kd [1, 25] read?
A: 2820 nM

Q: And the Kd [2, 25]?
A: ≥ 21200 nM

Q: What about the Kd [3, 25] of the same sequence?
A: 41.3 nM

Q: What about the Kd [4, 25] of the same sequence?
A: 5760 nM

Q: And the Kd [5, 25]?
A: 1070 nM

Q: With SSVREVFYF as the sequence, how does the Kd [6, 22] read?
A: 123 nM

Q: WPVTLACFVL was tested. Which Kd [1, 24] did it give?
A: 3560 nM

Q: And the Kd [2, 24]?
A: 956 nM

Q: And the Kd [3, 24]?
A: 71.5 nM

Q: And the Kd [4, 24]?
A: 9.11 nM

Q: What about the Kd [5, 24] of the same sequence?
A: 73.8 nM

Q: How did the Kd [11, 26] turn out when HSKKKCDDL was run?
A: ≥ 77900 nM

Q: And the Kd [12, 26]?
A: ≥ 77700 nM

Q: And the Kd [1, 26]?
A: ≥ 78100 nM

Q: And the Kd [2, 26]?
A: ≥ 66800 nM

Q: And the Kd [13, 26]?
A: ≥ 69800 nM

Q: What about the Kd [3, 26] of the same sequence?
A: ≥ 77400 nM

Q: And the Kd [14, 26]?
A: ≥ 78000 nM

Q: What about the Kd [15, 26] of the same sequence?
A: ≥ 77100 nM

Q: What about the Kd [10, 26] of the same sequence?
A: ≥ 57700 nM

Q: What about the Kd [16, 26] of the same sequence?
A: ≥ 77900 nM

Q: What about the Kd [17, 26] of the same sequence?
A: ≥ 70400 nM

Q: What about the Kd [18, 26] of the same sequence?
A: ≥ 69400 nM

Q: And the Kd [19, 26]?
A: ≥ 77700 nM

Q: What about the Kd [4, 26] of the same sequence?
A: ≥ 51900 nM

Q: And the Kd [21]?
A: ≥ 53900 nM

Q: What about the Kd [5, 26] of the same sequence?
A: ≥ 57000 nM

Q: What about the Kd [20, 26] of the same sequence?
A: ≥ 70000 nM

Q: Which results are given for FPGQQQPF?
A: Kd [1, 25]: ≥ 87700 nM; Kd [2, 25]: ≥ 37400 nM; Kd [3, 25]: ≥ 87800 nM; Kd [4, 25]: ≥ 30600 nM; Kd [5, 25]: ≥ 87700 nM

Q: Which results are given for RIRRFRRPM?
A: Kd [7, 22]: 4.4 nM; Kd [8, 22]: 769 nM; Kd [9, 22]: 36.2 nM; Kd [6, 22]: 30.2 nM; Kd [10, 22]: 8.94 nM

Q: SPYYIRKESY was tested. Which Kd [1, 22] did it give?
A: 669 nM

Q: What about the Kd [2, 22] of the same sequence?
A: 65.4 nM

Q: And the Kd [3, 22]?
A: 101 nM

Q: And the Kd [4, 22]?
A: ≥ 69600 nM

Q: What about the Kd [5, 22] of the same sequence?
A: 646 nM
